In publication PMC8228192, “Parallel and Sequential Pathways of Molecular Recognition of a Tandem-Repeat Protein and Its Intrinsically Disordered Binding Partner” (Biomolecules, 2021):
Residue numbers refer to the chain shown, from its start. Names may count otherwise. No end group written: not given here.

T1: ARM repeat domain of human β-catenin (residues 134–671) (human, UniProt P35222 134-671)
T1 construct: β-catenin, human, ARM repeat domain, residues 134–671; Plasmid was a gift from W.I. Weis; source: E. coli C41, purified (glutathione-Sepharose 4B, thrombin cleavage on resin, Mono-Q)
T1 sequence (looked up): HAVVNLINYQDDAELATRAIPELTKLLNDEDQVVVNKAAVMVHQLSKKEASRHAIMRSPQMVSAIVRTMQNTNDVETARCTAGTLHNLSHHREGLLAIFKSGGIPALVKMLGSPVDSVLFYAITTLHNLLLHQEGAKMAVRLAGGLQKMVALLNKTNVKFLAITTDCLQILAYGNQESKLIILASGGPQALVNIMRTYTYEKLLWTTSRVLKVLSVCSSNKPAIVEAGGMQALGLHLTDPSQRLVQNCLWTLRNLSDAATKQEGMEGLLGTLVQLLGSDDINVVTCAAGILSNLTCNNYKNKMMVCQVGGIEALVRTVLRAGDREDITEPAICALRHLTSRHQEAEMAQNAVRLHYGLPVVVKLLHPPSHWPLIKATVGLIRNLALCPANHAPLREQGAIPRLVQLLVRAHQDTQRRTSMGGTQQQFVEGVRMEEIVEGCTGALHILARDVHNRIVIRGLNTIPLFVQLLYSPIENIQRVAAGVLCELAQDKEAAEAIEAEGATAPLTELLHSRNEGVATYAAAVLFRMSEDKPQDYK

B1: TCF7L2 (1–54), wild type, unlabelled (domain or fragment, UniProt Q9NQB0 1-54, looked up)
chain: MPQLNGGGGDDLGANDELISFKDEGEQEEKSSENSSAERDLADVKSSLVNESET
notes: also called wild-type TCF7L2 (1–54); source: E. coli C41, purified (Ni-NTA, thrombin cleavage, Superdex 75)
B2: TCF7L2 (1–54) S31C L12A, fluorescein-labelled (domain or fragment, UniProt Q9NQB0 1-54, looked up)
chain: MPQLNGGGGDDAGANDELISFKDEGEQEEKC(fluorescein maleimide)SENSSAERDLADVKSSLVNESET
notes: One extra serine is left behind after thrombin cleavage of the tag; source: E. coli C41, purified (Ni-NTA, thrombin cleavage, Superdex 75), labelled with fluorescein maleimide
B3: TCF7L2 (1–54) S31C E29A, fluorescein-labelled (domain or fragment, UniProt Q9NQB0 1-54, looked up)
chain: MPQLNGGGGDDLGANDELISFKDEGEQEAKC(fluorescein maleimide)SENSSAERDLADVKSSLVNESET
notes: as for B2
B4: TCF7L2 (1–54) S31C E26A, fluorescein-labelled (domain or fragment, UniProt Q9NQB0 1-54, looked up)
chain: MPQLNGGGGDDLGANDELISFKDEGAQEEKC(fluorescein maleimide)SENSSAERDLADVKSSLVNESET
notes: as for B2
B5: TCF7L2 (1–54) S31C E24A, fluorescein-labelled (domain or fragment, UniProt Q9NQB0 1-54, looked up)
chain: MPQLNGGGGDDLGANDELISFKDAGEQEEKC(fluorescein maleimide)SENSSAERDLADVKSSLVNESET
notes: as for B2
B6: TCF7L2 (1–54) S31C K45A, fluorescein-labelled (domain or fragment, UniProt Q9NQB0 1-54, looked up)
chain: MPQLNGGGGDDLGANDELISFKDEGEQEEKC(fluorescein maleimide)SENSSAERDLADVASSLVNESET
notes: as for B2
B7: TCF7L2 (1–54) S31C I19A, fluorescein-labelled (domain or fragment, UniProt Q9NQB0 1-54, looked up)
chain: MPQLNGGGGDDLGANDELASFKDEGEQEEKC(fluorescein maleimide)SENSSAERDLADVKSSLVNESET
notes: One extra serine is left behind after thrombin cleavage of the tag; also called TCF7L2 I19A; source: E. coli C41, purified (Ni-NTA, thrombin cleavage, Superdex 75), labelled with fluorescein maleimide
B8: TCF7L2 (1–54) S31C, unlabelled (domain or fragment, UniProt Q9NQB0 1-54, looked up)
chain: B1 chain with S31C
notes: One extra serine is left behind after thrombin cleavage of the tag; also called WT; pseudo-wild type; source: E. coli C41, purified (Ni-NTA, thrombin cleavage, Superdex 75)
B9: TCF7L2 (1–54) S31C F21A, fluorescein-labelled (domain or fragment, UniProt Q9NQB0 1-54, looked up)
chain: MPQLNGGGGDDLGANDELISAKDEGEQEEKC(fluorescein maleimide)SENSSAERDLADVKSSLVNESET
notes: as for B2
B10: TCF7L2 (1–54) S31C, labelled with fluorescein maleimide at Cys31 (domain or fragment, UniProt Q9NQB0 1-54, looked up)
chain: MPQLNGGGGDDLGANDELISFKDEGEQEEKC(fluorescein maleimide)SENSSAERDLADVKSSLVNESET
notes: One extra serine is left behind after thrombin cleavage of the tag; also called fluorescein-labelled WT; fluorescent-labelled WT TCF7L2 (1–54); source: E. coli C41, purified (Ni-NTA, thrombin cleavage, Superdex 75), labelled with fluorescein maleimide
B11: TCF7L2 (1–54) S31C L48A, fluorescein-labelled (domain or fragment, UniProt Q9NQB0 1-54, looked up)
chain: MPQLNGGGGDDLGANDELISFKDEGEQEEKC(fluorescein maleimide)SENSSAERDLADVKSSAVNESET
notes: as for B2
B12: TCF7L2 (1–54) S31C D23A, fluorescein-labelled (domain or fragment, UniProt Q9NQB0 1-54, looked up)
chain: MPQLNGGGGDDLGANDELISFKAEGEQEEKC(fluorescein maleimide)SENSSAERDLADVKSSLVNESET
notes: as for B2
B13: TCF7L2 (1–54) S31C E24A E29A, fluorescein-labelled (domain or fragment, UniProt Q9NQB0 1-54, looked up)
chain: MPQLNGGGGDDLGANDELISFKDAGEQEAKC(fluorescein maleimide)SENSSAERDLADVKSSLVNESET
notes: One extra serine is left behind after thrombin cleavage of the tag; also called double mutant; source: E. coli C41, purified (Ni-NTA, thrombin cleavage, Superdex 75), labelled with fluorescein maleimide
B14: TCF7L2 (1–54) S31C N15A, fluorescein-labelled (domain or fragment, UniProt Q9NQB0 1-54, looked up)
chain: MPQLNGGGGDDLGAADELISFKDEGEQEEKC(fluorescein maleimide)SENSSAERDLADVKSSLVNESET
notes: as for B2
B15: TCF7L2 (1–54) S31C E28A, fluorescein-labelled (domain or fragment, UniProt Q9NQB0 1-54, looked up)
chain: MPQLNGGGGDDLGANDELISFKDEGEQAEKC(fluorescein maleimide)SENSSAERDLADVKSSLVNESET
notes: as for B2
B16: TCF7L2 (1–54) S31C E17A, fluorescein-labelled (domain or fragment, UniProt Q9NQB0 1-54, looked up)
chain: MPQLNGGGGDDLGANDALISFKDEGEQEEKC(fluorescein maleimide)SENSSAERDLADVKSSLVNESET
notes: as for B2
B17: TCF7L2 (1–54) S31C V44A, fluorescein-labelled (domain or fragment, UniProt Q9NQB0 1-54, looked up)
chain: MPQLNGGGGDDLGANDELISFKDEGEQEEKC(fluorescein maleimide)SENSSAERDLADAKSSLVNESET
notes: as for B2
B18: TCF7L2 (1–54) S31C L41A, fluorescein-labelled (domain or fragment, UniProt Q9NQB0 1-54, looked up)
chain: MPQLNGGGGDDLGANDELISFKDEGEQEEKC(fluorescein maleimide)SENSSAERDAADVKSSLVNESET
notes: as for B2
B19: TCF7L2 (1–54) S31C E38A, fluorescein-labelled (domain or fragment, UniProt Q9NQB0 1-54, looked up)
chain: MPQLNGGGGDDLGANDELISFKDEGEQEEKC(fluorescein maleimide)SENSSAARDLADVKSSLVNESET
notes: as for B2
B20: TCF7L2 (1–54) S31C D23A E24A E26A E28A E29A (5X), fluorescein-labelled (domain or fragment, UniProt Q9NQB0 1-54, looked up)
chain: MPQLNGGGGDDLGANDELISFKAAGAQAAKC(fluorescein maleimide)SENSSAERDLADVKSSLVNESET
notes: One extra serine is left behind after thrombin cleavage of the tag; also called quintuple mutant; 5X variant; source: E. coli C41, purified (Ni-NTA, thrombin cleavage, Superdex 75), labelled with fluorescein maleimide

Tests used:
Settings in all cases: both partners purified
[1] = molecular target: T1, ARM repeat domain of human β-catenin …; assay: ITC; β-catenin 2–4 µM in the cell, TCF7L2 18–40 µM in the syringe; PBS, 1 mM DTT, 30 °C; one-site binding fit
[2] = molecular target: T1, ARM repeat domain of human β-catenin …; assay: stopped-flow fluorescence kinetics (association); 10 nM fluorescein-labelled TCF7L2 mixed 1:1 with 100–1000 nM unlabelled β-catenin, pseudo-first-order; PBS, 1 mM DTT, 15 °C; kon from the linear fit of kobs against β-catenin concentration
[3] = molecular target: T1, ARM repeat domain of human β-catenin …; assay: fluorescence spectroscopy kinetics (dissociation, fluorimeter); pre-formed 1:1 complex of labelled TCF7L2 and β-catenin mixed 1:1 with 50-times molar excess of unlabelled TCF7L2; PBS, 1 mM DTT, 15 °C; fitted to sums of exponential phases
[4] = molecular target: T1, ARM repeat domain of human β-catenin …; assay: stopped-flow fluorescence kinetics (dissociation); pre-formed 1:1 complex (200 nM) of labelled TCF7L2 and β-catenin mixed 1:1 with 50-times molar excess of unlabelled TCF7L2 (10 µM); PBS, 1 mM DTT, 15 °C; fitted to sums of exponential phases

Binder	binding result [1]	kon [2]	koff,major (major slow phase of biphasic dissociation) [3]	koff,minor (minor fast phase of biphasic dissociation) [3]	koff,major (major slow phase of biphasic dissociation) [4]	koff,minor (minor fast phase of biphasic dissociation) [4]
B1	binds					
B2		7.19e+07 ± 0.13 M⁻¹ s⁻¹	0.000977 ± 0.75 s⁻¹	0.00264 ± 0.2 s⁻¹		
B3		5.73e+07 ± 0.43 M⁻¹ s⁻¹	0.000897 ± 0.44 s⁻¹	0.00245 ± 0.21 s⁻¹		
B4		5.59e+07 ± 0.22 M⁻¹ s⁻¹	0.000474 ± 0.3 s⁻¹	0.00166 ± 0.16 s⁻¹		
B5		6.05e+07 ± 0.12 M⁻¹ s⁻¹	0.000503 ± 0.4 s⁻¹	0.00153 ± 0.21 s⁻¹		
B6		1.031e+08 ± 0.19 M⁻¹ s⁻¹	0.00219 ± 0.4 s⁻¹	0.015 ± 1.3 s⁻¹		
B7		7.04e+07 ± 0.52 M⁻¹ s⁻¹			0.011 ± 0.5 s⁻¹	0.207 ± 10 s⁻¹
B8	binds					
B9		4.82e+07 ± 0.17 M⁻¹ s⁻¹			0.0258 ± 2 s⁻¹	0.423 ± 15 s⁻¹
B10		7.33e+07 ± 0.14 M⁻¹ s⁻¹	0.000573 ± 0.4 s⁻¹	0.00152 ± 0.28 s⁻¹		
B11		5.67e+07 ± 0.6 M⁻¹ s⁻¹	0.00132 ± 0.1 s⁻¹	0.00424 ± 0.13 s⁻¹		
B12		5.31e+07 ± 0.25 M⁻¹ s⁻¹	0.0003 ± 0.16 s⁻¹	0.00239 ± 0.7 s⁻¹		
B13		6.13e+07 ± 0.34 M⁻¹ s⁻¹	0.000425 ± 0.29 s⁻¹	0.00173 ± 0.14 s⁻¹		
B14		6.25e+07 ± 0.23 M⁻¹ s⁻¹	0.000442 ± 0.15 s⁻¹	0.00365 ± 0.83 s⁻¹		
B15		5.84e+07 ± 0.35 M⁻¹ s⁻¹	0.000496 ± 0.35 s⁻¹	0.00116 ± 0.28 s⁻¹		
B16		6.3e+07 ± 0.42 M⁻¹ s⁻¹	0.00891 ± 2.9 s⁻¹	0.0283 ± 1.9 s⁻¹		
B17		5.05e+07 ± 0.46 M⁻¹ s⁻¹			0.0742 ± 8 s⁻¹	0.498 ± 70 s⁻¹
B18		5.95e+07 ± 0.24 M⁻¹ s⁻¹			0.0993 ± 17 s⁻¹	0.616 ± 111 s⁻¹
B19		6.2e+07 ± 0.19 M⁻¹ s⁻¹	0.000539 ± 0.5 s⁻¹	0.00261 ± 0.28 s⁻¹		
B20		4.26e+07 ± 0.17 M⁻¹ s⁻¹	0.000295 ± 0.23 s⁻¹	0.00234 ± 0.33 s⁻¹		
